The results in this text go back to article PMC10766600 (2024).

“And” between values parts separate entries of the source, which are not always exact repeats. Identical values can stand only once.

Sequences and labels used below:
B1: bacteriophage T5 capsid-like particles (T5 CLPs) (complex)
chain: AVNQSSSVEVSSESYETIFSQRIIRDLQKELVVGALFEELPMSSKILTMLVEPDAGKATWVAASTYGTDTTTGEEVKGALKEIHFSTYKLAAKSFITDETEEDAIFSLLPLLRKRLIEAHAVSIEEAFMTGDGSGKPKGLLTLASEDSAKVVTEAKADGSVLVTAKTISKLRRKLGRHGLKLSKLVLIVSMDAYYDLLEDEEWQDVAQVGNDSVKLQGQVGRIYGLPVVVSEYFPAKANSAEFAVIVYKDNFVMPRQRAVTVERERQAGKQRDAYYVTQRVNLQRYFANGVVSGTYAAS

Common to all, as to assay: SPR
A general note: SPR reads the build-up and loss of mass on a sensor chip optically.

Experiment [1] concerns the target pmC: full-length pb10 fused at its C-terminal end with mCherry (bacteriophage T5 | , UniProt Q6QGD6 1-164).
The target of experiment [2] is pNmC: N-terminal capsid-binding domain pN of pb10 fused at its C-terminal end with mCherry (bacteriophage T5 | , UniProt Q6QGD6 1-73).
The target in experiment [3] is pO: full-length pb10 fused at its C-terminal end with ovalbumin (bacteriophage T5 | , UniProt Q6QGD6 1-164).
The target in experiment [4] is pNO: N-terminal capsid-binding domain pN of pb10 fused at its C-terminal end with ovalbumin (bacteriophage T5 | , UniProt Q6QGD6 1-73).
The target of experiment [5] is B1.

Turning to B1, the Kd is 1.4 pM in experiment [1], 0.9 pM in experiment [2], 2.3 pM in experiment [3] and 1.2 pM in experiment [4]. Moreover, the koff came to 0.0002 s⁻¹ in experiment [1], 0.00011 s⁻¹ in experiment [2], 0.00035 s⁻¹ in experiment [3] and 0.00023 s⁻¹ in experiment [4].

B2: decoration protein pb10 of bacteriophage T5, full length (natural protein)
chain: MIDYSGLRTIFGEKLPESHIFFATVAAHKYVPSYAFLRRELGLSSAHTNRKVWKKFVEAYGKAIPPAPPAPPLTLSKDLTASMSVEEGAALTLSVTATGGTGPYTYAWTKDGSPIPDASGATYTKPTAAAEDAGSYKVTVTDSKQVSKDSTTCAVTVNPTVPGG
modifications: DNA-free expanded capsid lacking pb10 (T5 dec deletion, stAmN5). Mature pb8 after removal of the scaffolding domain; limits from the UniProt chain feature, matching the 299 aa entity of PDB 6OMC/6OMA. Minor capsid components (portal) not included.
Turning to B2, in experiment [5], the koff is 0.00019 s⁻¹ and 0.0003 s⁻¹.

As usually defined, the Kd is a measure of binding affinity in units of concentration. A high value points to weaker binding. By koff is commonly meant the first-order rate constant of dissociation. Read a high koff as fast dissociation.
